Patent US20210301025A1 (published 2021)

B1: P54AR4-83v2 N6C, NEM conjugate (designed binder, not shown: small tags and cut ends)
chain: LPAPKCLVVSEVTEDSARLSWDDPWAFYESFLIQYQESEKVGEAIVLTVPGSERSYDLTGLKPGTEYTVSIYGVHNVYKDTNMRGLPLSAIFTT
modifications: N-ethyl maleimide (NEM) on Cys 6
B2: P54AR4-83v2 Q34C, NEM conjugate (designed binder, not shown: small tags and cut ends)
chain: LPAPKNLVVSEVTEDSARLSWDDPWAFYESFLICYQESEKVGEAIVLTVPGSERSYDLTGLKPGTEYTVSIYGVHNVYKDTNMRGLPLSAIFTT
modifications: N-ethyl maleimide (NEM) on Cys 34
B3: P54AR4-83v2 P2C, NEM conjugate (designed binder, not shown: small tags and cut ends)
chain: LCAPKNLVVSEVTEDSARLSWDDPWAFYESFLIQYQESEKVGEAIVLTVPGSERSYDLTGLKPGTEYTVSIYGVHNVYKDTNMRGLPLSAIFTT
modifications: N-ethyl maleimide (NEM) on Cys 2
B4: P54AR4-83v2 P63C, NEM conjugate (designed binder, not shown: small tags and cut ends)
chain: LPAPKNLVVSEVTEDSARLSWDDPWAFYESFLIQYQESEKVGEAIVLTVPGSERSYDLTGLKCGTEYTVSIYGVHNVYKDTNMRGLPLSAIFTT
modifications: N-ethyl maleimide (NEM) on Cys 63
B5: P54AR4-83v2 P50C, NEM conjugate (designed binder, not shown: small tags and cut ends)
chain: LPAPKNLVVSEVTEDSARLSWDDPWAFYESFLIQYQESEKVGEAIVLTVCGSERSYDLTGLKPGTEYTVSIYGVHNVYKDTNMRGLPLSAIFTT
modifications: N-ethyl maleimide (NEM) on Cys 50
B6: P54AR4-83v2 N82C, NEM conjugate (designed binder, not shown: small tags and cut ends)
chain: LPAPKNLVVSEVTEDSARLSWDDPWAFYESFLIQYQESEKVGEAIVLTVPGSERSYDLTGLKPGTEYTVSIYGVHNVYKDTCMRGLPLSAIFTT
modifications: N-ethyl maleimide (NEM) on Cys 82
B7: P54AR4-83v2 N76C, NEM conjugate (designed binder, not shown: small tags and cut ends)
chain: LPAPKNLVVSEVTEDSARLSWDDPWAFYESFLIQYQESEKVGEAIVLTVPGSERSYDLTGLKPGTEYTVSIYGVHCVYKDTNMRGLPLSAIFTT
modifications: N-ethyl maleimide (NEM) on Cys 76
B8: P54AR4-83v2 P24C, NEM conjugate (designed binder, not shown: small tags and cut ends)
chain: LPAPKNLVVSEVTEDSARLSWDDCWAFYESFLIQYQESEKVGEAIVLTVPGSERSYDLTGLKPGTEYTVSIYGVHNVYKDTNMRGLPLSAIFTT
modifications: N-ethyl maleimide (NEM) on Cys 24
B9: P54AR4-83v2 P4C, NEM conjugate (designed binder, not shown: small tags and cut ends)
chain: LPACKNLVVSEVTEDSARLSWDDPWAFYESFLIQYQESEKVGEAIVLTVPGSERSYDLTGLKPGTEYTVSIYGVHNVYKDTNMRGLPLSAIFTT
modifications: N-ethyl maleimide (NEM) on Cys 4
B10: P54AR4-83v2 P87C, NEM conjugate (designed binder, not shown: small tags and cut ends)
chain: LPAPKNLVVSEVTEDSARLSWDDPWAFYESFLIQYQESEKVGEAIVLTVPGSERSYDLTGLKPGTEYTVSIYGVHNVYKDTNMRGLCLSAIFTT
modifications: N-ethyl maleimide (NEM) on Cys 87

Assays:
[1] = target: T1, EGFR (form used in the assay not stated) (human, UniProt P00533 25-645, limits assumed); test: ELISA, NEM conjugate, 10 nM
[2] = target: T1, EGFR (form used in the assay not stated); test: ELISA, NEM conjugate, 100 nM
[3] = target: T1, EGFR (form used in the assay not stated); test: ELISA, NEM conjugate, 500 nM

Row | Binder | binding relative to P54AR4-83v2 parent [1] | binding relative to P54AR4-83v2 parent [2] | binding relative to P54AR4-83v2 parent [3]
1 | B1 | 0.76 ratio | 1.01 ratio | 0.89 ratio
2 | B2 | 0.89 ratio | 1.03 ratio | 0.94 ratio
3 | B3 | 0 ratio | 0 ratio | 0.01 ratio
4 | B4 | 0.95 ratio | 1.02 ratio | 0.92 ratio
5 | B5 | 0.91 ratio | 1.05 ratio | 0.97 ratio
6 | B6 | 0.56 ratio | 0.97 ratio | 0.96 ratio
7 | B7 | 0.75 ratio | 0.97 ratio | 0.91 ratio
8 | B8 | 0.45 ratio | 0.85 ratio | 0.83 ratio
9 | B9 | 0.02 ratio | 0.02 ratio | 0.12 ratio
10 | B10 | 0.73 ratio | 0.93 ratio | 0.91 ratio
